Reference: paper PMC4977500, “Rescuing neuronal cell death by RAIDD- and PIDD- derived peptides and its implications for therapeutic intervention in neurodegenerative diseases” (Scientific Reports, 2016)

B1: RAIDD DD (domain or fragment)
chain: not shown
notes: RAIDD death domain, amino acids 94-199; also called RAIDD death domain; source: E. coli BL21 (DE3) RILP, purified
B2: PIDD DD (domain or fragment, UniProt Q9HB75 777-883, looked up)
chain: LNLGDAETGFLTQSNLLSVAGRLGLDWPAVALHLGVSYREVQRIRHEFRDDLDEQIRHMLFSWAERQAGQPGAVGLLVQALEQSDRQDVAEEVRAVLELGRRKYQDS
notes: PIDD death domain, amino acids 777-883; The His tag is named on the protein for the pull-down; also called his-tagged PIDD DD; PIDD death domain; source: E. coli BL21 (DE3) RILP, purified
B3: PDH3 (TAT-fused peptide with wildtype PIDD DD helix 3) (peptide)
peptide: YGRKKRRQRRRGGGGVSYREVQRIRHEFR
notes: PIDD helix 3 (H3 of the death domain), wildtype; FITC-labelled versions were also made, but only for microscopy of cell entry; also called PIDD H3; source: synthetic peptide (Peptron)
B4: RDH3 (TAT-fused peptide with wildtype RAIDD DD helix 3) (peptide)
peptide: YGRKKRRQRRRGGGGLSQTDIYRCKANHPHNV
notes: RAIDD helix 3 (H3 of the death domain), wildtype; FITC-labelled versions were also made, but only for microscopy of cell entry; also called RAIDD DD H3; source: synthetic peptide (Peptron)

Key:
Settings in all cases: both partners purified
PIDD DD = target: B2; experiment: native gel or EMSA; native-PAGE on a PhastSystem, 8-25% acrylamide gradient gels, Coomassie staining; complexes in 20 mM Tris pH 8.0, 50 mM NaCl; pre-incubated with or without peptide for 1 hour at room temperature; complex band without peptide taken as 100%
full-length RAIDD = target: T1, full-length RAIDD (UniProt P78560 1-199); experiment: as above
T1 construct: RAIDD, full length, amino acids 1-199; source: E. coli BL21 (DE3), purified (Ni-NTA, S-200 gel filtration)
T1 sequence (P78560 whole entry, the tested form may be a part): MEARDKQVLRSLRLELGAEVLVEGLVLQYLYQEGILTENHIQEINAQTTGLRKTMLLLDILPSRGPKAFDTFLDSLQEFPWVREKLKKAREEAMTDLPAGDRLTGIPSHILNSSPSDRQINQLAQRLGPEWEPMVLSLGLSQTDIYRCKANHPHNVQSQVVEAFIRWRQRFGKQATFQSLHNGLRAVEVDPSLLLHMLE

[1] = target: T2, Full-length RAIDD without any tag (UniProt P78560 1-199); experiment: pull-down; his-tagged PIDD DD on Ni-NTA beads, full-length RAIDD without any tag, with RDH3 or PDH3 (30 μM or 500 μM); wash 20 mM Tris-HCl pH 7.9, 500 mM NaCl, 30 mM imidazole; eluate on SDS-PAGE
T2 construct: RAIDD, full length, amino acids 1-199; source: E. coli BL21 (DE3), purified
T2 sequence (P78560 whole entry, the tested form may be a part): as above

RAIDD DD = target: B1; experiment: native gel or EMSA; native-PAGE on a PhastSystem, 8-25% acrylamide gradient gels, Coomassie staining; complexes in 20 mM Tris pH 8.0, 50 mM NaCl; pre-incubated with or without peptide for 1 hour at room temperature; complex band without peptide taken as 100%
RAIDD DD, sequence (P78560 94-199): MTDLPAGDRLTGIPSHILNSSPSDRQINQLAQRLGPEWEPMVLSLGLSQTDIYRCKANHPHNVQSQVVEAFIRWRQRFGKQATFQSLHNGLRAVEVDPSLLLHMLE

B1: binds (PIDD DD).

B2: binds (full-length RAIDD); binds [1].

For B3, the “fold inhibitory capacity against TAT-Y814A (blocking of RAIDD DD:PIDD DD)” value (RAIDD DD) was over 5 fold.

For B4, the “fold inhibitory capacity against TAT-Y814A (blocking of RAIDD DD:PIDD DD)” value (PIDD DD) was over 5 fold.
